Source: IntAct's records for PubMed 21435037

B1: Inositol phosphate phosphatase SopB (Salmonella typhimurium), O30916 (parent)
chain: MQIQSFYHSASLKTQEAFKSLQKTLYNGMQILSGQGKAPAKAPDARPEIIVLREPGATWGNYLQHQKASNHSLHNLYNLQRDLLTVAATVLGKQDPVLTSMANQMELAKVKADRPATKQEEAAAKALKKNLIELIAARTQQQDGLPAKEAHRFAAVAFRDAQVKQLNNQPWQTIKNTLTHNGHHYTNTQLPAAEMKIGAKDIFPSAYEGKGVCSWDTKNIHHANNLWMSTVSVHEDGKDKTLFCGIRHGVLSPYHEKDPLLRHVGAENKAKEVLTAALFSKPELLNKALAGEAVSLKLVSVGLLTASNIFGKEGTMVEDQMRAWQSLTQPGKMIHLKIRNKDGDLQTVKIKPDVAAFNVGVNELALKLGFGLKASDSYNAEALHQLLGNDLRPEARPGGWVGEWLAQYPDNYEVVNTLARQIKDIWKNNQHHKDGGEPYKLAQRLAMLAHEIDAVPAWNCKSGKDRTGMMDSEIKREIISLHQTHMLSAPGSLPDSGGQKIFQKVLLNSGNLEIQKQNTGGAGNKVMKNLSPEVLNLSYQKRVGDENIWQSVKGISSLITS

Variants of: B1
Settings: with cdc42_human CDC42, P60953
Sequence of cdc42_human CDC42, P60953 (P60953 whole entry, looked up): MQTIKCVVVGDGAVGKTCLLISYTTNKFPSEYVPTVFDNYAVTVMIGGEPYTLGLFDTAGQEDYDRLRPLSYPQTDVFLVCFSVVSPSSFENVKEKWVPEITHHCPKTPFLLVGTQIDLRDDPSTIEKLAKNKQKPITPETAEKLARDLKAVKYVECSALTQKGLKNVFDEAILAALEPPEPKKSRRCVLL
L76P;R466A was tested, and the “effect of a mutation on the interaction” value was “decreasing interaction”.
For L73P;R466A, the “effect of a mutation on the interaction” value was “decreasing interaction”.
In the case of L63P;R466A, the “effect of a mutation on the interaction” value is reported as “decreasing interaction”.
With L84P;R466A the “effect of a mutation on the interaction” value was “decreasing interaction”.
L52P was tested, and the “effect of a mutation on the interaction” value was “decreasing interaction”.

Variants of: B1
Settings: with cdc42_human CDC42, P60953
Remark: another data set of the same source
With L84P the “effect of a mutation on the interaction” value was “decreasing interaction”.
For L73P, the “effect of a mutation on the interaction” value was “decreasing interaction”.
L76P was tested, and the “effect of a mutation on the interaction” value was “decreasing interaction”.
With L63P the “effect of a mutation on the interaction” value was “decreasing interaction”.
